Assay results from article PMC10375748.

Columns and labels:
[1] = target: ZZ peptide displayed on the CHO cell surface with the murine B7-1 transmembrane domain (from pEF1α-ZZ-B7); assay: flow cytometry on cells; stable CHO-ZZ cells (2 x 10^5 cells/sample) incubated with an excess of fluorescein-conjugated IgG of Table 2 for 40 min at 4 °C, washed with PBS; percentage of positive cells
[2] = target: ZZ peptide displayed on the CHO cell surface with the human PDGFR transmembrane domain (from pEF1α-ZZ-PDGFR); assay: flow cytometry on cells; CHO cells transiently transfected with the ZZ display plasmid, labelled with hIgG-FITC; percentage of ZZ-positive cells
[3] = target: ZZ peptide displayed on the CHO cell surface with the murine B7-1 transmembrane domain (from pEF1α-ZZ-B7); assay: as above

Substance | percentage of positive cells [1] | percentage of ZZ-positive cells [2] | percentage of ZZ-positive cells [3]
Rb pAb to 6× His tag (FITC) (Abcam Ab1206-250) (antibody) | 100% |  | 
Rb pAb to HA tag (PE) (Abcam Ab72564) (antibody) | 100% |  | 
Donkey Anti-Rabbit IgG (H + L)-Cy3 (Jackson ImmunoResearch Laboratories 711-165-152) (antibody) | 100% |  | 
Human IgG-FITC (Bersee BFR550) (antibody) | 100% | 6.9% | 43.6%
